Values joined by “and” are separate entries in the source; they are usually repeats but may differ in a detail not shown here. Equal entries are not always repeated. Values belong to the binder of their own block, whether it stands above or below them.
Assays:
human CCR8 [1] = target: T1, human CCR8 (human, UniProt P51685 1-355); test: cell-based or functional assay
[2] = target: pm1, modified CCR8 related peptide (human, sulfated tyrosine at Y15); test: ELISA on coated CCR8 peptide (500 ng/mL), OD [cont.]
Sequence of pm1, modified CCR8 related peptide (human, sulfated tyrosine at Y15) (peptide, as listed by the source): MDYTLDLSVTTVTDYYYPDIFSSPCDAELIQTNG
Experimental: (§1) The specific binding properties of antibodies were evaluated by ELISA with coated CCR8 related peptides (500 ng/mL) in carbonate/bicarbonate buffer. Different peptides were used as described in Table 1 (see Example 1). Each anti-CCR8 mAb was tested at 1 μg/mL then diluted at 1/10. After an incubation at room temperature during 90 min, unbound mAbs were removed by washings. […] After washings, 3,3′,5,5′-tetramethylbenzidine (TMB) (Interchim, Montlugon, France) was added for 15 min. Then the optical density (OD) was determined by using a multiplate reader (Tecan, Lyon, France) and correlated with mAb reactivity on the panel of coated peptides.

[3] = target: pm8, modified CCR8 related peptide (human, sulfated tyrosines at Y15, Y16 and Y17); test: as above
Sequence of pm8, modified CCR8 related peptide (human, sulfated tyrosines at Y15, Y16 and Y17) (peptide, as listed by the source): as above
Experimental: as §1

[4] = target: T2, pwt1, unmodified CCR8 related peptide (human, none (non-sulfated Y15, Y16, Y17)); test: as above
T2 construct: First 34 amino acids of human CCR8, synthetic; also called unmodified peptide
T2 sequence (peptide, as listed by the source): as above
Experimental: as §1

[5] = target: pm6, modified CCR8 related peptide (human, sulfated tyrosines at Y16 and Y17); test: as above
Sequence of pm6, modified CCR8 related peptide (human, sulfated tyrosines at Y16 and Y17) (peptide, as listed by the source): as above
Experimental: as §1

[6] = target: pm3, modified CCR8 related peptide (human, sulfated tyrosine at Y17); test: as above
Sequence of pm3, modified CCR8 related peptide (human, sulfated tyrosine at Y17) (peptide, as listed by the source): as above
Experimental: as §1

[7] = target: pm5, modified CCR8 related peptide (human, sulfated tyrosines at Y15 and Y17); test: as above
Sequence of pm5, modified CCR8 related peptide (human, sulfated tyrosines at Y15 and Y17) (peptide, as listed by the source): as above
Experimental: as §1

[8] = target: pm2, modified CCR8 related peptide (human, sulfated tyrosine at Y16); test: as above
Sequence of pm2, modified CCR8 related peptide (human, sulfated tyrosine at Y16) (peptide, as listed by the source): as above
Experimental: as §1

[9] = target: pm4, modified CCR8 related peptide (human, sulfated tyrosines at Y15 and Y16); test: as above
Sequence of pm4, modified CCR8 related peptide (human, sulfated tyrosines at Y15 and Y16) (peptide, as listed by the source): as above
Experimental: as §1

human CCR8 [10] = target: T1, human CCR8; test: flow cytometry, HUT78 cells (endogenous CCR8)
Experimental: (§2) The same staining protocol was applied on human CCR8 transfected CHO cell line versus wild type CHO cell line, cutaneous T cell lymphoma HUT78 cell line and human activated T cell model.
(§3) Briefly, 1·10⁵ cells per well in a 96 well plate were incubated with a dilution of unconjugated anti-CCR8 mAb at 10 μg/mL then diluted at 1/3.33, 4 dilution points (during 30 min at 4° C.). In human activated T cells model, prior to mAb incubation, cells were first incubated with 200 nM of hCCL1 (R&D Systems, Minneapolis, MN, USA) or buffer PBS (Invitrogen by Thermofisher Scientific, Illkirch-Graffenstaden, France) supplemented by 2% Fetal Bovine Serum (Invitrogen by Thermofisher Scientific, Illkirch-Graffenstaden, France) and 2 mM EDTA (Invitrogen by Thermofisher Scientific, Illkirch-Graffenstaden, France) during 1 hour at 4° C. To determine EC50 value, 8 concentrations of anti-CCR8 mAb were tested. Unbound antibodies were washed away with PBS (Invitrogen by Thermofisher Scientific, Illkirch-Graffenstaden, France) supplemented by 2% Fetal Bovine Serum (Invitrogen by Thermofisher Scientific, Illkirch-Graffenstaden, France) and 2 mM EDTA (Invitrogen by Thermofisher Scientific, Illkirch-Graffenstaden, France). Subsequently, cells are centrifuged (5 min at 400 g) and bound antibody is detected with F(ab′)₂-Goat anti-Mouse IgG (H+L) Cross-Adsorbed Secondary Antibody, Alexa Fluor 488 (dilution 1/500) (Invitrogen by Thermofisher Scientific, Illkirch-Graffenstaden, France) or with F(ab′)₂-Goat anti-Human IgG Fc Secondary Antibody, PE (Invitrogen by Thermofisher Scientific, Illkirch-Graffenstaden, France) (dilution 1/1000) at 4° C. for 30 min. Detection reagent is washed away and cells are centrifuged (5 min at 400 g) and resuspended in 30 μL PBS. Bound detection antibody is quantified on a MacsQuant16 (Miltenyi, Gladbach, Germany) (B1 or B2 channel, 5000 events per acquisition). During the experiment, the respective isotype mAb controls (mouse IgG1, mouse IgG2a, mouse IgG2b, mouse IgG3 or human IgG1) (Biolegend, Amsterdam, The Netherlands) are included to exclude any unspecific binding events.
EC50 values were determined via nonlinear fit “log(agonist)vs.response−Variable slope (four parameters)” function of Graphpad prism. EC50 values were not constantly determined in the same experiments.

human CCR8 [11] = target: T1, human CCR8; test: cell-based or functional assay; remark: listed apart in the source
hCCR8 SNAP-tag [12] = target: T3, hCCR8 SNAP-tag (human, UniProt P51685 1-355, SNAP-tag labelled with Lumi4-Terbium); test: HTRF Tag-lite, inhibition of hCCL1-AF647 binding to SNAP-tag hCCR8 on HEK-293
T3 construct: also called human CCR8 engineered with a SNAP-tag at the N-terminus; not shown: SNAP-tag at the N-terminus
Experimental: The inhibition of CCL1 binding to hCCR8 was evaluated with the Tag-Lite® technology from Cisbio (Revvity). Human CCR8 is engineered with a SNAP-tag at the N-terminus of the GPCR. hCCR8 SNAP-tag is transiently transfected on HEK-293 cell line using FuGene® (Promega, Madison, WI, USA). 48 hours after transfection, cells are labeled with the substrate Lumi4-Terbium® (Cisbio, Codolet, France) which covalently reacts with the SNAP-tag, for 1 h at 37° C. […] The Kd is previously obtained in a saturation binding assay on the same cells. […] The plate is next incubated at 21° C. for 2 h. Detection of HTRF signal is performed on the multiplate reader EnVision (PerkinElmer, Waltham, MA, USA). The HTRF (665/620) ratio is calculated by EnVision software, the data exported are considered as the total binding. The specific binding is calculated then by subtracting the non-specific signal from the total binding. The Ki and IC₅₀are calculated using the “One site—Fit Ki” and “One site—FitlogIC50” from GraphPad Prism 9 (Graphpad Software, San Diego, CA, USA), respectively.

human CCR8 [13] = target: T1, human CCR8; test: cell-based or functional assay; remark: listed apart in the source
human CCR8 [14] = target: T1, human CCR8; test: flow cytometry, inhibition of hCCL1-AF647 binding to hCCR8 CHO cells
Experimental: The hCCR8 transfected CHO cell line was dispatched at a density of 1·10⁵ per well in a 96-well plate. Cells were incubated for 30 min at 4° C. with or without anti-CCR8 mAb tested at 10 μg/mL then diluted at 1/3. Unbound antibodies were washed away with PBS (Gibco, Villebon-sur-Yvette, France) supplemented by 2% Fetal Bovine Serum (Invitrogen by Thermofisher Scientific, Illkirch-Graffenstaden, France) and 2 mM EDTA. […] After washing unbound ligands, CCL1 bound detection is quantified on a MacsQuant16 (Miltenyi, Gladbach, Germany) (R1 channel, 5 000 events per acquisition).
For IC₅₀ determination, a concentration response curve is performed using 8 concentrations of mAb. Curves are fitted and IC₅₀ of CCL1 binding blocking activity is calculated using the sigmoidal dose-response (variable slope) model on GraphPad Prism 9 (GraphPad Software, San Diego, CA, USA).

human CCR8 [15] = target: T1, human CCR8; test: flow cytometry, hCCR8 transfected CHOK1 cells
Experimental: as §2, §3

hCCR8 SNAP-tag [16] = target: T3, hCCR8 SNAP-tag; test: cell-based or functional assay

B3: Ref #1 (TPP-21360 of WO 2021/260210) (antibody, human IgG1, V domains shown)
VH: EVQLLESGGGLVQPGGSLRLSCAASGFTFSSYGMHWVRQAPGKGLEWVSAINWNGGSTGYADSVKGRFTISRDNSKNTLYLQMNSLRAEDTAVYYCARGHHSGYDGRFFDYWGQGTLVTVSS
VL: QSVLTQPPSVSGAPGQRVTISCTGSSSNIGAGYNVHWYQQLPGTAPKLLIYTNNRRPSGVPDRFSGSKSGTSASLAISGLRSEDEADYYCAAWDASLSGWVFGGGTKLTVL
notes: Benchmark; variable regions cloned into vectors encoding heavy and light chains of human IgG1, produced in CHO
- % of internalization at 1 µg/ml (CCL1 at 300 nM = 100%), HTRF (hCCR8 SNAP-tag [16]): 126%
- % of internalization at 10 µg/ml (CCL1 at 300 nM = 100%), HTRF (hCCR8 SNAP-tag [16]): 111%
- IC50, CCL1 induced hCCR8 Gi2 signaling (BRET, HEK-293) (human CCR8 [1]): 0.101 µg/mL and 0.675 nM
- IC50 (human CCR8 [14]): 0.65 µg/mL
- % positive cells (human CCR8 [15]): 75.1%
- IC50 (hCCR8 SNAP-tag [12]): 0.45 µg/mL
- Ki (hCCR8 SNAP-tag [12]): 0.23 µg/mL

B5: Ref #3 (Anti-CCR8-1 of US 2021/0238292 A1) (antibody, human IgG1, V domains shown)
VH: QVQLVQSGAEVKKPGASVKVSCKASGYTFTSYYMHWVRQAPGQGLEWMGIINPSGGSTSYAQKFQGRVTMTRDTSTSTVYMELSSLRSEDTAVYYCARAVRNRFRFDYWGQGTLVTVSS
VL: QSALTQPASVSGSPGQSITISCTGTSSDVGSYNLVSWYQQHPGKAPKLMIYEVSKRPSGVSNRFSGSKSGNTASLTISGLQAEDEADYYCSSYAGSSTFVVFGGGTKLTVL
- % of internalization at 1 µg/ml (CCL1 at 300 nM = 100%), HTRF (hCCR8 SNAP-tag [16]): 100%
- % of internalization at 10 µg/ml (CCL1 at 300 nM = 100%), HTRF (hCCR8 SNAP-tag [16]): 90%

Next, values leading:

- IC50, CCL1 induced hCCR8 Gi2 signaling (BRET, HEK-293) (human CCR8 [1]): 0.029 µg/mL and 0.194 nM
- binding result [2]: binds
- binding result [3]: binds
- binding result [4]: binds
- binding result [5]: binds
- binding result [6]: binds
- binding result [7]: binds
- binding result [8]: binds
- binding result [9]: binds
- % of labelled cells (human CCR8 [10]): 23%
- hCCL1 (100 nM) residual response in %, Protocol #2, mAb 0.08 µg/mL ([…] nM) (human CCR8 [11]): 62%
- hCCL1 (100 nM) residual response in %, Protocol #2, mAb 0.4 µg/mL (2.67 nM) (human CCR8 [11]): 38%
- hCCL1 (100 nM) residual response in %, Protocol #2, mAb 10 µg/mL (66.7 nM) (human CCR8 [11]): 30%
- hCCL1 (100 nM) residual response in %, Protocol #3, mAb 0.05 µg/mL (0.33 nM) (human CCR8 [11]): 94%
- hCCL1 (100 nM) residual response in %, Protocol #3, mAb 0.5 µg/mL (3.33 nM) (human CCR8 [11]): 63%
- hCCL1 (100 nM) residual response in %, Protocol #3, mAb 5 µg/mL (33.3 nM) (human CCR8 [11]): 39%
- IC50 (hCCR8 SNAP-tag [12]): 0.09 µg/mL
- Ki (hCCR8 SNAP-tag [12]): 0.05 µg/mL
B1: humanized anti-CCR8 mAb 2-12 (antibody, human IgG1, kappa)
heavy: not shown
light: DIVMTQAAPSLSVTPGESASISCTSSKSLLHSNGNTYLYWFLQKPGQSPQLLIYRMSNLASGVPDRFSGSGSGTAFTLKISRVEAEDVGVYYCMQHREYPFTFGSGTKLEIKRTVAAPSVFIFPPSDEQLKSGTASVVCLLNNFYPREAKVQWKVDNALQSGNSQESVTEQDSKDSTYSLSSTLTLSKADYEKHKVYACEVTHQGLSSPVTKSFNRGEC
notes: Humanized, human IgG1 / kappa, produced in CHO

- IC50, CCL1 induced hCCR8 Gi2 signaling (BRET, HEK-293) (human CCR8 [1]): 0.049 µg/mL and 0.328 nM
- binding result [2]: binds
- binding result [3]: binds
- binding result [4]: binds
- binding result [5]: binds
- binding result [6]: binds
- binding result [7]: binds
- binding result [8]: binds
- binding result [9]: binds
- IC50, CCL1 induced hCCR8 Gi2 signaling (BRET) at pH 6.5 (human CCR8 [13]): 0.044 µg/ml and 0.292 nM
- IC50, CCL1 induced hCCR8 Gi2 signaling (BRET) at pH 7.4 (human CCR8 [13]): 0.061 µg/ml and 0.405 nM
- IC50 (human CCR8 [14]): 1.3 µg/mL and 8.71 nM
- % positive cells (human CCR8 [15]): 81.1%
- MFI fold change to isotype ctrl (human CCR8 [15]): 10.7 fold
- hCCL1 (100 nM) residual response in %, Protocol #2, mAb 0.08 µg/mL ([…] nM) (human CCR8 [11]): 79%
- hCCL1 (100 nM) residual response in %, Protocol #2, mAb 0.4 µg/mL (2.67 nM) (human CCR8 [11]): 38%
- hCCL1 (100 nM) residual response in %, Protocol #2, mAb 10 µg/mL (66.7 nM) (human CCR8 [11]): 17%
- hCCL1 (100 nM) residual response in %, Protocol #3, mAb 0.05 µg/mL (0.33 nM) (human CCR8 [11]): 102%
- hCCL1 (100 nM) residual response in %, Protocol #3, mAb 0.5 µg/mL (3.33 nM) (human CCR8 [11]): 64%
- hCCL1 (100 nM) residual response in %, Protocol #3, mAb 5 µg/mL (33.3 nM) (human CCR8 [11]): 47%
B2: anti-CCR8 mAb 2-3 (antibody, V domains shown)
VH: EVQLQQSGPELLKPGTSVKISCTTSGYTFSDYTLHWVKQSHGKSLEWIGGITPKNGDTRYDPRFKDKATLTIDKSSSAAYMELRSLTSEDSAVYYCARVARFYGVSPYAMDYWGQGASVTVSS
VL: DVVMTQTPLSLPVSLGDQASISCRCTQSLLHSNGDTYLHWYLQKPGQSPKLLIYKVSNRFSGVPDRFSGSGSGTDFTLEITRVEAEDLGVYFCSQTTHVPYTFGGGTKLEIK

- % of internalization at 1 µg/ml (CCL1 at 300 nM = 100%), HTRF (hCCR8 SNAP-tag [16]): 95%
- % of internalization at 10 µg/ml (CCL1 at 300 nM = 100%), HTRF (hCCR8 SNAP-tag [16]): 103%
B4: Ref #4 (137-H3L2 (LM-108) of WO 2022/078277) (antibody, human IgG1, V domains shown)
VH: EVQLVESGGGLVQPGGSLKLSCAASGFTFNTYAMNWVRQASGKGLEWVARIRSKANNYATYYADSVKDRFTISRDDSKNTLYLQMNNLKTEDTAVYYCVRDRSRGEDYAMDYWGQGTLVTVSS
VL: DIVMTQSPLSLPVTPGEPASISCRSSKSLLHSNANTYLYWFLQKPGQSPQLLIYRMSNLASGVPDRFSGSGSGTAFTLKISRVEAEDVGVYYCMQHLEYPFTFGQGTKLEIK
